Like-named read-outs stand apart in the source and are kept apart here.
How the values were obtained:
[1] = target: T1, SARS-CoV-1 Spike on pseudovirus (SARS-CoV-1, UniProt P59594 14-1255); assay: cell-based or functional assay
[2] = target: T2, WIV1 Spike on pseudovirus (WIV1 (bat SARS-like coronavirus)); assay: cell-based or functional assay
[3] = target: T1, SARS-CoV-1 Spike on pseudovirus; assay: cell-based or functional assay; remark: listed apart in the source
[4] = target: T2, WIV1 Spike on pseudovirus; assay: cell-based or functional assay; remark: listed apart in the source
[5] = target: T1, SARS-CoV-1 Spike on pseudovirus; assay: cell-based or functional assay; remark: listed apart in the source
[6] = target: T2, WIV1 Spike on pseudovirus; assay: cell-based or functional assay; remark: listed apart in the source
[7] = target: SARS-CoV-1 spike trimer (recombinant) (SARS-CoV-1, UniProt P59594 14-1195)

B1: AB-1 (antibody, V domains shown)
VH: EVQLVESGAEVKKPGESLKISCKGSGYTFTRYWIGWVRQMPGKGLEWMGIIYPGDSDVRYSPSFQGHVTISADKSISTAYLQWNSLKASDTAMYYCARLPQYCSKGVCYRWFDPWGQGTLVTVSS
VL: EIVLTQSPSSVSASVGDRVTITCRASQGISSWLAWYQQKPGKAPKLLIYAASSLQSGVPSRFSGSGSGTDFTLTISSLQPEDFATYYCQQGHSFPYTFGQGTNLEIK
- % neutralization at 4.5 µg/ml, pseudovirus [1]: 99%
- % neutralization at 4.5 µg/ml, pseudovirus [2]: 101%
- IC50, pseudovirus neutralization [3]: 0.009 µg/mL
- IC50, pseudovirus neutralization [4]: 0.0139 µg/mL
- IC50, pseudovirus neutralization [5]: 0.04 µg/mL
- IC50, pseudovirus neutralization [6]: 0.069 µg/mL
- EC50 [7]: 0.065 µg/mL

Reference: US20230357367A1 (GENERATE BIOMEDICINES, published 2023)
